Entries after “also recorded” stand apart in the source; their conditions may differ.
How the values were obtained:
Trans-sialidase assay = format: biochemical
Protocol: The trans-sialidase assay was performed as described (Scudder et al., J. Biol. Chem. 268:9886-9891 (1993)) with slight modifications. Various amounts of intact enzyme or enzyme fragments were added to 50 mM PBS, Ph 7.2, containing 15% fetal calf serum and […] of [^14C]N-acetyllactosamine (4×10^5 dpm), 50 μg BSA and 0.02% NaN3 in a volume of 60 μl. After incubation for a predetermined amount of time at room temperature, the reaction mixture was diluted to 1.0 ml with distilled water and applied to a column containing 1.0 ml Q-Sepharose equilibrated with water. Sialylated product was eluted with 1 M NaCi and quantified by scintillation counting.
TS enzymatic activity was measured by the sialylation of the acceptor ^14C-labeled N-acetyllactosamine on anion exchange resins (Scudder, P. et. al., J. Biol. Chem. 268:9886-9891 (1993)). Recombinant TSA-1, was expressed on insect sf9 cells and purified from serum-free medium by ion exchange chromatography (monoQ) and preparative SDS-PAGE (Wrightsman, R. A. et al., J. Immunol., 153:3148-3154 (1994).

Bcl-2 mRNA in PC12 cells = assay: RT-PCR of Bcl-2 gene transcripts in PC12 cells; format: cell-based, rat
Protocol: Total RNA was extracted from PC12 cells by the acid guanidinum isothiocyanate method (Chomchinski, P., et al., Biotechniques 15: 532-535 (1993)) using TRI-reagent (Molecular Research Center, Inc.). cDNA synthesis was performed according to the instruction of the manufacturer (Gibco-BRL). Reverse transcription reactions were carried out for 50 minutes at 42° C. and were heated to 70° C. for 15 minutes to terminate the reaction using a MiniCycler (MJ Research). Samples were cooled to 4° C. and stored at −20° C. until use.
PCR reactions were performed in 50 μl containing 1.5 μl of template DNA (corresponding to cDNA synthesized from 100 ng of total RNA), 1×PCR buffer, 100 μM of deoxynucleotides, 2.5 mM MgCl2, 10 mM DTT, 10 pM of Bcl-2 primers, and 2 U of Taq DNA polymerase (Gibco-BRL). The synthetic DNA primers for the rat Bcl-2 were: 5′-[…]-3′ (SEQ ID NO:8) and 5′-[…]-3′(SEQ ID NO:9) to give a PCR product of 566 bp. The sequences for synthetic GAPDH DNA primers (Wong, H., et al., Anal. Biochem. 223: 251-258 (1994)) were: 5′-[…]-3′ (SEQ ID NO:10) and 5′-[…]-3′ (SEQ ID NO:11) giving a PCR produce of 306 base pairs. Amplifications were carried out in MiniCycler (MJ Research) using following conditions: 98° C. for 5 minutes (initial heat denaturation), 3 cycles of 94° C. for 1 minute, 63° C. for 1 minute, 72° C. for 1.5 minutes; 3 cycles of 94° C. for 1 minutes, 60° C. for 1 minute, 72° C. for 1.5 minutes, followed by 72° C. for 10 minutes. Primers for GAPDH (10 pM) were added at cycle 7 by the “primer-dropping” method. Aliquots of PCR reaction products were separated by electrophoresis in 2% agarose gels (Ultrapure, Gibco-BRL), containing 0.2 μg/ml ethidium bromide. Gels were analyzed by computerized densitometric scanning using Gel doc 1000 (Bio Rad) and Molecular Analyst Software, version 2.1.

[1] = system: primary rat cerebellar granule neurons; assay: Survival of primary cerebellar granule neurons in low K+ medium; format: cell-based; conditions: serum-free BME 5 mM KCl, TS 100 ng/ml, 24 hours, FDA staining
Protocol: Cultures enriched in granule neurons were obtained from the cerebellum of 8-days-old Wistar rats (Charles River, Wilmington, Mass.) as described by D'Mello et al., J. Neurosci 17:1548-1560 (1997). Cells were plated in basal Eagle medium (BME, Gibco BRL, Gaithersburg, Md.), supplemented with 10% FCS, 25 mM KCl and 2 mM glutamine (Gibso BRL) on dishes coated with poly-L-lysine and laminin. Cytosine arabinofumoside (10 μM) was added to the culture medium 18-22 hrs after plating to prevent replication of non-neuronal cells. Replacement of culture medium with serum-free BME medium was performed 7-10 days after plating. Cells were maintained in serum-free BME with 5 mM KCl for 3 hrs and challenged with different stimuli. Neuronal survival was assayed after 24 hours by staining with 10 μg/ml fluorescein diacetate (FDA, Sigma) (Jones and Senft, 1985) and with DAPI (see above). Chicken dorsal root ganglia neurons were prepared as described (Cox and Dunlap, J. Gen. Physiol 104:311-336 (1994)).

IL-6 mRNA in PBMC = assay: RT-PCR of IL-6 mRNA in PBMC; format: cell-based, human
Protocol: Semiquantitative analysis of cytokine mRNA was performed by the primer-dropping method (Wong et al., Anal. Biochem. 223:251-258, […])). […] Two μg of total RNA were converted to cDNA in a volume of 20 μl using random hexamer primers according to the manufacturer's instructions (GIBCO-BRL). Synthetic DNA primers for human IL-6 were 5′[…] (SEQ ID NO:24) and 5′[…] (SEQ ID NO:25), and for GAPDH were those described in Example 1 (SEQ ID NO: 10 and SEQ ID NO:11). The PCR mixture contained 20 mM Tris-HCl pH 8.4, 50 mM KCl, 1.5 mM MgCl2, 1 mM dNTP, 200 pM primers and 1 U of Taq polymerase in 50 μl. Thermal cycling conditions were: denaturation step 95 degrees for 5 min; 35 cycles of 95 degrees 30 sec, 60 degrees 30 sec and 75 degrees 1 min, and a final step of 75 degrees for 5 min. At cycle number 9, GAPDH primers were added. Five microliters of the PCR product were alalyzed by electrophoresis through 2% agarose-gel in the presence of 1 μg/ml ethidium bromide.

[2] = system: mouse splenocytes, bone marrow cells, and peritoneal cells; assay: IL-6 secretion by naive mouse cells; format: cell-based; conditions: peritoneal cells from BALB/c and other strains of mice

Row | Molecule | trans-sialidase enzymatic activity (Trans-sialidase assay) | bcl-2 gene expression in PC12 cells (Bcl-2 mRNA in PC12 cells; TS 2.5 ng/ml, CNTF 50 ng/ml, alone or combined, 17 hours) | expression of Bcl-2 mRNA in PC12 cells (Bcl-2 mRNA in PC12 cells; TS 100 and 200 ng/ml, 17 hours serum-free) | protection of primary cerebellar granule neurons from death in low K+ medium [1] | expression of IL-6 mRNA in PBMC (IL-6 mRNA in PBMC; TS 1 μg/ml, 4, 10 or 24 hours) | time of maximal upregulation of IL-6 transcripts (IL-6 mRNA in PBMC; after TS stimulation) [h] | IL-6 secretion by naive mouse cells [2]
1 | TS-F: recombinant full catalytic domain of TS, amino acid residues 33-666, His-tagged, expressed in E. coli (protein, listed as Trypanosoma cruzi, His tag, recombinant full catalytic domain of TS, amino acid residues 33-666, His-tagged, expressed in E. coli) ETQIAIKNSRVSSVSRVVDPTVIVKGNKLYVLVGSYYSSRSYWSSHGDARDWDILLAVGEVTKSTAGGKITASIKWGSPVSLKKFFPAEMEGMHTNQFLGGAGVAIVASNGNLVYPVQVTNKRKQVFSKIFYSEDDGKTWKFGKGRSDFGCSEPVALEWEGKLIINTRVDWKRRLVYESSDMEKPWVEAVGTVSRVWGPSPKSNQPGSQTSFTAVTIEGMRVMLFTHPLNFKGRCVRDRLNLWLTDNQRIYNVGQVSIGDENSAYSSVLYKDDKLYCLHEINTDEVYSLVFARLVGELRIIKSVLRSWKNWTATCPAFAPLLIQPLRRQRVVVVPLSPRLVLLAFCRQRLPKRMGGSYRCVNASTANAERVRNGLKFAGVGGGALWPVSQQGQNQRYRFANHAFTLVASVTIHEAPRAASPLLGASLDSSGGKKLLGLSYDEKHQWQPIYGSTPVTPTGSWETGKRYHLVLTMANKIGSVYIDGELLEGSGQTVVPDGRTPDISHFYVGGYKRSDMPTISHVTVNNVLLYNRRQLNTEEIRTLFLSQDLIGTEAHMDSSSDSSAHSTPSTPADSSAHSTPSTPVDSSAHSTPSTPADSSAHGTPSTPVDSSAHGTPSTPADSSAHGTPSTPVDS | enzymatically active |  |  |  |  |  | 
2 | TS: T. cruzi trans-sialidase purified by immuno-affinity chromatography from supernatants of infected Vero cells (SEQ ID NO:2, SEQ ID NO:34) (protein, listed as Trypanosoma cruzi) MVAIADARYETSSENSLIDTVAKYSVDDGETWETQIAIKNSRVSSVSRVVDPTVIVKGNKLYVLVGSYYSSRSYWSSHGDARDWDILLAVGEVTKSTAGGKITASIKWGSPVSLKKFFPAEMEGMHTNQFLGGAGVAIVASNGNLVYPVQVTNKRKQVFSKIFYSEDDGKTWKFGKGRSDFGCSEPVALEWEGKLIINTRVDWKRRLVYESSDMEKPWVEAVGTVSRVWGPSPKSNQPGSQTSFTAVTIEGMRVMLFTHPLNFKGRCVRDRLNLWLTDNQRIYNVGQVSIGDENSAYSSVLYKDDKLYCLHEINTDEVYSLVFARLVGELRIIKSVLRSWKNWTATCPAFAPLLIQPLRRQRVVVVPLSPRLVLLAFCRQRLPKRMGGSYRCVNASTANAERVRNGLKFAGVGGGALWPVSQQGQNQRYRFANHAFTLVASVTIHEAPRAASPLLGASLDSSGGKKLLGLSYDEKHQWQPIYGSTPVTPTGSWETGKRYHLVLTMANKIGSVYIDGELLEGSGQTVVPDGRTPDISHFYVGGYKRSDMPTISHVTVNNVLLYNRRQLNTEEIRTLFLSQDLIGTEAHMDSSSDSSAHSTPSTPADSSAHSTPSTPVDSSAHSTPSTPADSSAHGTPSTPVDSSAHGTPSTPADSSAHGTPSTPVDSSAHSTPSTPVDSSAHSTPSTPVDSSAHGAPSTPADSSAHGTPSTPVDSSAHGTPSTPADSSAHSTPSTPADSSAHSTPSTPADSSAHSTPSTPVDSSAHGTPSTPADSSAHSTPSTPADSSAHGTPSTPVDSSAHSTPSTPVDSSAHGTPSTPVDSSAHSTPSTPVDSSAHGTPSTPVDSSAHSTPSTPADSSAHSTPSTPADSSAHGTPSTPVDSSAHSTPSTPADSSAHSTPSTPVDSSAHSTPSTPADSSAHGTPSTPVDSSAHGTPSTPADSSAHSTPSTPADSSAHSTPSTPADSSAHSTPSTPVDSSAHSTPSTPADSSAHSTPSTPADSSAHSTPSTPADSSAHSTPSTPVDSSAHSTPSTPADSSAHGTPSTPADSSAHSTPSTPVDSSAHSTPSTPADSSAHGTPSTPADSSAHSTPSTPADSSAHGTPSTPADSSAHSTPSTPAGSSANGTVLILPDGAALSTFSGGGLLLCACALLLHVFFMAVF |  | did not induce bcl-2 gene expression individually | dramatically increased Bcl-2 mRNA; also recorded: induces the expression of Bcl-2 mRNA | effectively protected the neurons from death; also recorded: increased number of viable cells | induces expression of IL-6 mRNA | 4 to 10 | potently and specifically induced IL-6 secretion; also recorded: upregulator of IL-6 secretion

From patent publication US8114412B2, “T. cruzi-derived neurotrophic agents and methods of use therefor” (priority 1999, dated 2012)
